# Data reported in US20230399395A1 (published 2023).
# Changes are numbered by the printed parent chain.
# B1: Nb21 (VHH)
# VHH: QVQLQESGGGSAQAGGSLKLSCVVSGYPYSGDYCMGWFRQAPGKEREGVAAFYTGGGSTYYADSVKGRFTTSQDNATSTFHLQMNSLKPEDTATYYCAADPWSVYGGSCGVKDPNPKAFNYWGQGTQVTVSS
# B2: Nb25 (VHH)
# VHH: QVQLQESGGGSVQAGGSLRLSCAASEYTYSRYCMGWFRQVPGKEREGVATIDSDGSTSYADSVKGRFTISKDNAKNTLYLQMNSLKPEDTAMYYCAARYFYIATTGLRPCGEYEYNYWGQGTQVTVSS
# B3: Nb92 (VHH)
# VHH: QVQLQESGGGLVQPGGSLRLSCAASGFTFSNYYMSWVRQAPGKGLEWVSSISSDGSNTYYEDSVKGRFTISRDNANNTLYLQMNSLKSEDTALYHCATDLYDDSWYDHWGQGTQVTVSS
# B4: Nb66 (VHH)
# VHH: QVQLQESGGGSVQAGGSLRLSCAASGYTVSSNMGWFRQAPGKEREGVAAIYPDGATYYADSVKGRFTISQDNAENTVYLQMNSLKPEDTAMYYCAADLAFNGLGTLALHGYWGQGTQVTVSS
# B5: HuNb21-Fc (antibody, V domains shown)
# VH: EVQLQESGGGLVQPGGSLRLSCAASGYPYSGDYCMGWFRQAPGKEREGVAAFYTGGGSTYYADSVKGRFTISRDNSKNTLYLQMNSLRAEDTAVYYCAADPWSVYGGSCGVKDPNPKAFNYWGQGTLVTVSS
# B6: HuNb66-Fc (antibody, V domains shown)
# VH: B4 VHH with Q1E, S11L, A14P, Q70R, A73S, V77L, K85R, P86A, Q117L
# Target: T1, human IL5 (human, UniProt P05113 20-134, biotinylated (IL5-biotin) in Examples 2, 5, 6, 9 and 11; site not stated)
# Assay: ELISA
row,Binder,EC50
1,B1,0.0357 µg/mL
2,B2,0.0427 µg/mL
3,B3,0.0432 µg/mL
4,B4,0.0327 µg/mL

# Target: T1, human IL5
# Assay: BLI
row,Binder,Kd
1,B1,0.629 nM
2,B2,0.491 nM
3,B3,0.385 nM
4,B4,< 0.001 nM

# Target: T1, human IL5
# Assay: flow cytometry blocking IL5/IL5R
row,Binder,IC50
1,B1,1.57 µg/mL
2,B2,2.62 µg/mL
3,B3,2.29 µg/mL
4,B4,1.17 µg/mL

# Target: T1, human IL5
# Assay: flow
row,Binder,IC50
1,B5,5.96 µg/mL
2,B6,5.73 µg/mL
